Experimental data published in publication PMC3663191 (mBio, 2013).
Residue numbers refer to the chain shown, from its start. Names may count otherwise. “And” between values parts separate entries of the source, which are not always exact repeats. Equal values may be shown once.

B1: WspR^wt (His-tagged WspR, purified) (enzyme, Pseudomonas aeruginosa)
chain: MHNPHESKTDLGAPLDGAVMVLLVDDQAMIGEAVRRSLASEAGIDFHFCSDPQQAVAVANQIKPTVILQDLVMPGVDGLTLLAAYRGNPATRDIPIIVLSTKEEPTVKSAAFAAGANDYLVKLPDAIELVARIRYHSRSYIALQQRDEAYRALRESQQQLLETNLVLQRLMNSDGLTGLSNRRHFDEYLEMEWRRSLREQSQLSLLMIDVDYFKSYNDTFGHVAGDEALRQVAGAIREGCSRSSDLAARYGGEEFAMVLPGTSPGGARLLAEKVRRTVESLQISHDQPRPGSHLTVSIGVSTLVPGGGGQTFRVLIEMADQALYQAKNNGRNQVGLMEQPVPPAPAG
B2: WspR^V72D (His-tagged WspR V72D variant, purified) (enzyme, Pseudomonas aeruginosa)
chain: B1 chain with V72D

Target: the molecule itself
Assay: SEC

| Protein | stoichiometry N |
| --- | --- |
| B1 | 4 and 2 |
| B2 | 4 and 2 |
